Data taken from US20250136703A1 (PHANES THERAPEUTICS, published 2025).

B1: L3A6-C (chimeric version of L3A6) (antibody, V domains shown)
VH: QVQLQQPGAELVKPGAPVKLSCKASGYTFTNYWMNWVKQRPGRGLEWIGRIDPSDTETHYNQEVKDKATLTVDKSSSTAYIQLSSLTSEDSAVYYCARGYGTYYGMDYWGQGTSVTVSS
VL: not shown
notes: Mouse VH and VL fused to the constant regions of human IgG1 heavy chain and kappa light chain
B2: L3A6-H1L1 (humanized mAb constructed with L3A6-H1 heavy chain and L3A6-L1 light chain) (antibody, V domains shown)
VH: QVTLRESGPALVKPTQTLTLTCTASGYTFTNYWMNWVRQPPGKALEWIGRIDPSDTETHYNQEVKDRATLSVDKSKNQAVLTMTNMDPVDTATYYCARGYGTYYGMDYWGQGSLVTVSS
VL: DIVLTQSPDSLSVSLGERATINCRASESVDNYGISFMNWFQQKPGQPPKLLIYAASNQGSGVPDRFSGSGSGTDFTLTISSLQAEDVAVYFCQQSKEVPWTFGGGTKVEIK
notes: Humanized VH and VL fused to the constant regions of human IgG1 heavy chain and kappa light chain

What was measured:
[1] = biological target: T1, recombinant human IL13Ra2 (ACROBiosystems; CAT #: IL2-H52H5) (human, UniProt Q14627 27-343); assay: ELISA, antigen coated on plate, anti-human IgG Fc-HRP detection
T1 construct: Bought protein, coated on the ELISA plate; also called Interleukin-13 Receptor Subunit Alpha 2; immobilized recombinant IL13Ra2
T1 sequence (looked up): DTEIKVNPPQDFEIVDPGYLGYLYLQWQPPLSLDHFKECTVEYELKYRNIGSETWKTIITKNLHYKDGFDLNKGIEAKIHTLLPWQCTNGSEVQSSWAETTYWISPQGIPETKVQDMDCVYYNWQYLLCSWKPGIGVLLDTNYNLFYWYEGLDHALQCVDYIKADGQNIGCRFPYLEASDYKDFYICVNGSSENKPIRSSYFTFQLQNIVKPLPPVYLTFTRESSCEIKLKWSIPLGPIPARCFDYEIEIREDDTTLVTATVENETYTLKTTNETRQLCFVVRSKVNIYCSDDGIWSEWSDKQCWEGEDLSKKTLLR
Source text: FIGS. 1A-1E show the binding of purified chimeric anti-IL13Ra2 mAbs (VH and VL regions of mouse mAb fused to the constant regions of human IgG1 heavy chain and kappa light chain, respectively) to immobilized recombinant IL13Ra2 in an ELISA assay. The antigen was human IL13Ra2 (ACROBiosystems; Newark, DE; CAT #: IL2-H52H5). L3A6-C refers to the chimeric version of L3A6, other antibodies following the same naming rule; Isotype control (IgG1) was included as a negative control antibody.
Purified chimeric mAbs were tested in an ELISA assay for their ability to bind to immobilized IL13Ra2. Recombinant human IL13Ra2 in Carbonate-Bicarbonate Buffer (Sigma; St. Louis, MO; Cat #: C3041-100CAP) was coated on a 96-well plate at room temperature for 1 hour. The plate is blocked by 5% BSA in TBST for 1 hour at room temperature. In each well of an individual plate, mAbs at various concentrations were incubated for 1 hour at room temperature. The plate was washed and the binding to IL13Ra2 was detected by a mouse anti-human IgG Fc antibody conjugated to horseradish peroxidase (Genescript; Piscataway, NJ; Cat #: A01854) with incubation for 1 hour at room temperature. Then after washing, the ELISA was developed using One-step Detection Solution (ThermoFisher Scientific; Waltham, MA; Cat #: 34028) and measured as the absorbance at 450 nm. […]

[2] = biological target: T1, recombinant human IL13Ra2 …; assay: ELISA, antigen coated on plate

| Binder | binding result [1] | binding result [2] |
| --- | --- | --- |
| B1 | binds |  |
| B2 |  | binds |
